# Test results as given in patent US20230203182A1 (NAVROGEN, published 2023).
# Positions count from the first letter of the chain named. Names and notes keep the numbering of the source.
# T1: human CD20 on Ramos cells (human, UniProt P11836 1-297)
# T1 construct: whole, on cells; also called MS4A1
# T1 sequence (looked up): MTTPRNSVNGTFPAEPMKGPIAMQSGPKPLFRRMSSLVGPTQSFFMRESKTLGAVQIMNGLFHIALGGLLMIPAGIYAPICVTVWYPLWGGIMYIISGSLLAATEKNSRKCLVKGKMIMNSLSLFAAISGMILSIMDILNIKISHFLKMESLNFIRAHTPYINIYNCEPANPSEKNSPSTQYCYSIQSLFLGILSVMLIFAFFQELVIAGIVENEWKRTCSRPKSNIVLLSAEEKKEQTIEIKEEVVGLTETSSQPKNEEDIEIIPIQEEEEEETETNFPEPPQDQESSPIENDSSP
# B1: rituximab (parental antibody) (antibody, human IgG1, kappa)
# heavy: not shown
# light: QIVLSQSPAILSASPGEKVTMTCRASSSVSYIHWFQQKPGSSPKPWIYATSNLASGVPVRFSGSGSGTSYSLTISRVEAEDAATYYCQQWTSNPPTFGGGTKLEIKRTVAAPSVFIFPPSDEQLKSGTASVVCLLNNFYPREAKVQWKVDNALQSGNSQESVTEQDSKDSTYSLSSTLTLSKADYEKHKVYACEVTHQGLSSPVTKSFNRGEC
# notes: IgG1-type anti-CD20 antibody; Biotinylated when used as probe in the CA125 and CD20-peptide ELISAs; also called RTX; RTX-WT
# B2: RTX-MT clone 148 (antibody, human IgG1, kappa, V domains shown)
# VH: QVQLQQPGAELVKPGASVKMSCKASGYTFTSYNMHWVKQTPGRGLEWIGAIYPGNGDTSYNQKFKGKATLTADKSSSTAYMQLSSLTSEDSAVYYCARSTYFGGDWYFNVWGAGTTVTVSA
# VL: QIVLSQSPAILSASPGEKVTMTCRASSSVSYIHWFQQKPGSSPKPWIYATSNLASGVPVRFSGSGSGTSYSLTISRVEAEDAATYYCQQWTSNPPTFGGGTKLEIKR
# notes: Biotinylated in the ELISAs
# B3: RTX-MT clone 164 (antibody, human IgG1, kappa, V domains shown)
# VH: B2 VH with F102Y, G103C
# VL: B2 VL
# notes: Biotinylated in the ELISAs
# B4: RTX-MT clone 166 (antibody, human IgG1, kappa)
# heavy: not shown
# light: B1 light
# notes: Biotinylated in the ELISAs; also called N109D+P131S+S136Y; triple mutant RTX-MT clone 166
# B5: RTX-MT clone 198 (antibody, human IgG1, kappa, V domains shown)
# VH: B2 VH with F102Y, Y107C
# VL: B2 VL
# notes: Biotinylated in the ELISAs
# B6: RTX-MT clone 199 (antibody, human IgG1, kappa, V domains shown)
# VH: B2 VH with F102Y, F108L
# VL: B2 VL
# notes: Biotinylated in the ELISAs
# B7: human complement protein C4B (other)
# chain: KPRLLLFSPSVVHLGVPLSVGVQLQDVPRGQVVKGSVFLRNPSRNNVPCSPKVDFTLSSERDFALLSLQVPLKDAKSCGLHQLLRGPEVQLVAHSPWLKDSLSRTTNIQGINLLFSSRRGHLFLQTDQPIYNPGQRVRYRVFALDQKMRPSTDTITVMVENSHGLRVRKKEVYMPSSIFQDDFVIPDISEPGTWKISARFSDGLESNSSTQFEVKKYVLPNFEVKITPGKPYILTVPGHLDEMQLDIQARYIYGKPVQGVAYVRFGLLDEDGKKTFFRGLESQTKLVNGQSHISLSKAEFQDALEKLNMGITDLQGLRLYVAAAIIESPGGEMEEAELTSWYFVSSPFSLDLSKTKRHLVPGAPFLLQALVREMSGSPASGIPVKVSATVSSPGSVPEVQDIQQNTDGSGQVSIPIIIPQTISELQLSVSAGSPHPAIARLTVAAPPSGGPGFLSIERPDSRPPRVGDTLNLNLRAVGSGATFSHYYYMILSRGQIVFMNREPKRTLTSVSVFVDHHLAPSFYFVAFYYHGDHPVANSLRVDVQAGACEGKLELSVDGAKQYRNGESVKLHLETDSLALVALGALDTALYAAGSKSHKPLNMGKVFEAMNSYDLGCGPGGGDSALQVFQAAGLAFSDGDQWTLSRKRLSCPKEKTTRKKRNVNFQKAINEKLGQYASPTAKRCCQDGVTRLPMMRSCEQRAARVQQPDCREPFLSCCQFAESLRKKSRDKGQAGLQRALEILQEEDLIDEDDIPVRSFFPENWLWRVETVDRFQILTLWLPDSLTTWEIHGLSLSKTKGLCVATPVQLRVFREFHLHLRLPMSVRRFEQLELRPVLYNYLDKNLTVSVHVSPVEGLCLAGGGGLAQQVLVPAGSARPVAFSVVPTAATAVSLKVVARGSFEFPVGDAVSKVLQIEKEGAIHREELVYELNPLDHRGRTLEIPGNSDPNMIPDGDFNSYVRVTASDPLDTLGSEGALSPGGVASLLRLPRGCGEQTMIYLAPTLAASRYLDKTEQWSTLPPETKDHAVDLIQKGYMRIQQFRKADGSYAAWLSRGSSTWLTAFVLKVLSLAQEQVGGSPEKLQETSNWLLSQQQADGSFQDLSPVIHRSMQGGLVGNDETVALTAFVTIALHHGLAVFQDEGAEPLKQRVEASISKASSFLGEKASAGLLGAHAAAITAYALTLTKAPADLRGVAHNNLMAMAQETGDNLYWGSVTGSQSNAVSPTPAPRNPSDPMPQAPALWIETTAYALLHLLLHEGKAEMADQAAAWLTRQGSFQGGFRSTQDTVIALDALSAYWIASHTTEERGLNVTLSSTGRNGFKSHALQLNNRQIRGLEEELQFSLGSKINVKVGGNSKGTLKVLRTYNVLDMKNTTCQDLQIEVTVKGHVEYTMEANEDYEDYEYDELPAKDDPDAPLQPVTPLQLFEGRRNRRRREAPKVVEEQESRVHYTVCIWRNGKVGLSGMAIADVTLLSGFHALRADLEKLTSLSDRYVSHFETEGPHVLLYFDSVPTSRECVGFEAVQEVPVGLVQPASATLYDYYNPERRCSVFYGAPSKSRLLATLCSAEVCQCAEGKCPRQRRALERGLQDEDGYRMKFACYYPRVEYGFQVKVLREDSRAAFRLFETKITQVLHFTKDVKAAANQMRNFLVRASCRLRLEPGKEYLIMGLDGATYDLEGHPQYLLDSNSWIEEMPSERLCRSTRQRAACAQLNDFLQEYGTQGCQV
# notes: also called enhancer protein
# B8: RTX-MT N109D+S136Y (antibody, human IgG1, kappa)
# heavy: not shown
# light: B1 light
# B9: RTX N109D (antibody, human IgG1, kappa)
# heavy: not shown
# light: B1 light
# notes: also called RTX-MT N109D; RTX MT N109D
# Target: T2, human CA125/MUC16 protein (human, UniProt Q8WXI7 1-14451, limits assumed)
# Experiment: cell-based or functional assay
row,Binder,suppression of CDC activity by CA125 (Daudi cells) [%]
1,B1,32
2,B2,≤ 15
3,B3,≤ 15
4,B4,≤ 15
5,B5,≤ 15
6,B6,≤ 15

# Target: T2, human CA125/MUC16 protein
# Experiment: direct binding ELISA, CA125-coated wells, biotinylated C4B
row,Binder,binding result
1,B7,no binding

# Target: T3, human CD16a (Fc-gamma activating receptor FCGR3A), biotinylated (human, UniProt P08637 17-208, limits assumed, biotinylated)
# T3 construct: Soluble biotinylated probe in ELISA; construct not described; also called CD16a-biotin; Fc receptor
# Experiment: CD16a ELISA, percentage of binding with CA125 versus no CA125 (FIG. 7A)
# T3 sequence (P08637 17-208 limits assumed): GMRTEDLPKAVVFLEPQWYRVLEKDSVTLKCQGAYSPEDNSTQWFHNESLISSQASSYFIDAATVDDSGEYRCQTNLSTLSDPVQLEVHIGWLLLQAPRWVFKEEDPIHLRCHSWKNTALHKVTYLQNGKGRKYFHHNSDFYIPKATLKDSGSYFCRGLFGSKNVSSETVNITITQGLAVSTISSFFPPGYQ
row,Binder,binding result
1,B8,binds
2,B4,binds

# Target: T2, human CA125/MUC16 protein
# Experiment: ELISA, CA125-coated (15 KU/mL) and CD20 peptide-coated wells, biotinylated antibody
# Excerpt: FIG. 4. […] Each of these antibodies were biotinylated and retested for CD20 and CA125 binding via ELISA. Briefly, antibodies were biotinylated using the EZ-Link™ Sulfo-NHS-Biotin (ThermoScientific) following the manufacturer’s instructions. Biotinylated antibodies where quantified by Nanodrop and validated for signal intensity using an anti-IgG ELISA capture assay to measure the signal intensity for each antibody. […] Wells were washed and then secondarily probed with streptavidin-HRP and quantified using TMB substrate as described above on a Varioskan plate reader at 450 nm. […] Any signal greater than a 20% decrease in CA125 was considered positive.
row,Binder,"percent decrease in CA125 binding vs parental (ratio of CD20 to CA125 binding), selection criterion [%]"
1,B2,> 20
2,B3,> 20
3,B5,> 20
4,B6,> 20

# Target: T1, human CD20 on Ramos cells
# Experiment: cell-based fluorescent saturation binding on Ramos cells, Jurkat background subtracted, one-site nonlinear regression
row,Binder,Kd [nM]
1,B1,20.6
2,B9,30.5
